Source: paper PMC11555651 (Biochemical Journal, 2024)

T1: Aurora-A kinase domain 122–403 C290A,C393A (UniProt O14965 122-403, C290A | C393A)
T1 construct: Aurora-A Ser/Thr kinase, kinase domain residues 122-403 with C290A and C393A; also called Aurora-A 122–403, C290A, C393A
T1 sequence (looked up): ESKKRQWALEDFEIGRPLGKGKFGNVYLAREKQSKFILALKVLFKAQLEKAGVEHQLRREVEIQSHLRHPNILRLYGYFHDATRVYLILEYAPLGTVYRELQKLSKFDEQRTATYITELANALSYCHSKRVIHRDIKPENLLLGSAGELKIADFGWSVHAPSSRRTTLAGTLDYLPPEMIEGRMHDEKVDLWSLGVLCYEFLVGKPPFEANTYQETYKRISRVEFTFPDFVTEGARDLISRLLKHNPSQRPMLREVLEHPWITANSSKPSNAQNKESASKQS

B1: N-myc_(1–137) TAD (domain or fragment)
chain: GAMMPSCSTSTMPGMICKNPDLEFDSLQPCFYPDEDDFYFGGPDSTPPGEDIWKKFELLPTPPLSPSRGFAEHSSEPPSWVTEMLLENELWGSPAEEDAFGLGGLGGLTPNPVILQDCMWSGFSAREKLERAVSEKLQHG
notes: whole N-myc is said to have 464 residues; 15N-labelled for the NMR titration; also called N-myc TAD; not shown: His-NusA, N-terminal, cleaved
B2: N-myc_(64–137) (domain or fragment)
chain: GAMGSRGFAEHSSEPPSWVTEMLLENELWGSPAEEDAFGLGGLGGLTPNPVILQDCMWSGFSAREKLERAVSEKLQHG
notes: 15N-labelled for the NMR titration; also called C-terminal truncation of the TAD; not shown: His-NusA, N-terminal, cleaved

Tests used:
[1] = biological target: N-myc peptide 47-66 (Homo sapiens) (UniProt P04198); settings: cited from earlier work
[2] = biological target: T1, Aurora-A kinase domain 122–403 …; test: NMR titration; 1H-15N HSQC of 15N-labelled N-myc constructs (150-315 uM); unlabelled Aurora-A kinase domain (305-400 uM stock) added up to [N-myc]:[Aurora-A] 1:1.4; 20 mM (K/H)3PO4 pH 6.5, 150 mM NaCl, 2 mM beta-mercaptoethanol, 1% glycerol, 5 mM MgCl2, 5 mM ADP; 25°C stated for N-myc TAD; settings: both partners purified

Molecule	Kd [1] [µM]	binding result [2]
Fbxw7–Skp1 (from UniProt Q969H0)	< 0.01	
B1		binds
B2		binds
